Laboratory results as given in patent publication US20220003777A1 (Stanford University, published 2022).

Biological target: T1, Secreted Protease of C1 Esterase Inhibitor (StcE), recombinant N-terminal His-tagged (Escherichia coli O157:H7, UniProt O82882 36-898)
T1 construct: also called mucinase
T1 sequence: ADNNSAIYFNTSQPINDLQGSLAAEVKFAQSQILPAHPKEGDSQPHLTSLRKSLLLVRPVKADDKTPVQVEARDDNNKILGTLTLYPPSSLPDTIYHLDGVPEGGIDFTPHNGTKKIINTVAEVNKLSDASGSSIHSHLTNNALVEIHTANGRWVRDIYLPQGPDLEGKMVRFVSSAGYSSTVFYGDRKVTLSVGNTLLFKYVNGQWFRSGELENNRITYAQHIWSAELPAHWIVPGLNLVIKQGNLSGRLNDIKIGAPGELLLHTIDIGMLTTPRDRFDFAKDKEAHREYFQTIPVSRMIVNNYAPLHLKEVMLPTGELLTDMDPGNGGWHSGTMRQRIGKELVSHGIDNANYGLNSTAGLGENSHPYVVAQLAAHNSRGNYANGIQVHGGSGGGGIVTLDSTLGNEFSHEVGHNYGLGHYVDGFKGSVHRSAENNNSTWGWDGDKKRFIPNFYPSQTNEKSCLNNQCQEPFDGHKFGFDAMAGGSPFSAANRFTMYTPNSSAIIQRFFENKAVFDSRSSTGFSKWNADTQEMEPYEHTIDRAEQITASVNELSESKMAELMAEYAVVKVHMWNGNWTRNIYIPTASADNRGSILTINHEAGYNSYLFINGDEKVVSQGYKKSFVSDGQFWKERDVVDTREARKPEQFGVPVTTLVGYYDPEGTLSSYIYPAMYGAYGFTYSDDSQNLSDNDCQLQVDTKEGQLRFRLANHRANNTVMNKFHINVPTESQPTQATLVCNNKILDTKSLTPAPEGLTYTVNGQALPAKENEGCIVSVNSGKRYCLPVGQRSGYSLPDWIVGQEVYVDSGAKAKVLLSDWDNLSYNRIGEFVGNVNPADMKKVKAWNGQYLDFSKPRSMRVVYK
Assay: pull-down with StcE conjugated to POROS AL beads, EDTA present, silver stain

B1: C1 esterase inhibitor, human plasma-derived (other)
chain: NPNATSSSSQDPESLQDRGEGKVATTVISKMLFVEPILEVSSLPTTNSTTNSATKITANTTDEPTTQPTTEPTTQPTIQPTQPTTQLPTDSPTQPTTGSFCPGPVTLCSDLESHSTEAVLGDALVDFSLKLYHAFSAMKKVETNMAFSPFSIASLLTQVLLGAGENTKTNLESILSYPKDFTCVHQALKGFTTKGVTSVSQIFHSPDLAIRDTFVNASRTLYSSSPRVLSNNSDANLELINTWVAKNTNNKISRLLDSLPSDTRLVLLNAIYLSAKWKTTFDPKKTRMEPFHFKNSVIKVPMMNSKKYPVAHFIDQTLKAKVGQLQLSHNLSLVILVPQNLKHRLEDMEQALSPSVFKAIMEKLEMSKFQPTLLTLPRIKVTTSQDMLSIMEKLEFFDFSYDLNLCGLTEDPDLQVSAMQHQTVLELTETGVEAAAASAISVARTLLVFEVQQPFLFVLWDQQHKFPVFMGRVYDPRA
notes: Printed as C11NH throughout (OCR of C1INH); Native glycosylated protein; also called C11NH; C1-INH
  binding result: binds
